This is an account of results in patent US20220143136A1, “USE OF ANNEXINS IN PREVENTING AND TREATING MUSCLE MEMBRANE INJURY” (NORTHWESTERN UNIVERSITY, priority 2018, published 2022).

The test system of one assay is Anxa6^em1(GFP) mice. The assay can be described thus: Prednisone injection, annexin A6GFP repair cap after laser injury of isolated myofibers. The conditions noted are these: 1 mg/kg intraperitoneal, myofibers isolated 24 hours post injection; vs DMSO control. The format is in vivo, mouse. Here is the method: Multiphoton laser injury and imaging. Isolated fibers were subjected to laser-induced damage at room temperature using the Nikon A1R-MP multiphoton microscope. Imaging was performed using a 25×1.1 NA objective directed by the NIS-Elements AR imaging software. Green fluorescence protein (GFP) and FM 4-64 were excited using a 920 nm wavelength laser and emission wavelengths of […] and 629 nm were collected respectively. To induce laser damage on isolated myofibers, a diffraction limited spot (diameter approximately 410 nm) was created on the lateral membrane of the myofiber using a 920 nm wavelength laser at 10-15% laser power for 1 second. Time lapse images were collected as follows: one image was collected prior to damage, one image upon damage, then every 8 s for 80 s (10 images) followed by every 30 seconds for 5 min (10 images). At the end of the time lapsed image series, z-stack images were collected at 250 nm intervals through the damaged site on the myofiber directed by the NIS-Elements AR imaging software. Fluorescence intensity and cap area were measured using Fiji (NIH).
For prednisone studies, prednisone (catalog P6254) was resuspended in DMSO (catalog D2650, Sigma-Aldrich) at 5 mg/ml. Dosing was based on pretreatment weights (1 mg/kg body weight) in 30 μl total PBS. Mice were injected at 7 am on the day prior to imaging. […]

Assay [1] deals with rat model of myocardial ischemia-reperfusion-induced injury. The conditions noted are these: La et al., FASEB J. 2001; cited from earlier work.
For assay [2], the system named is Duchenne muscular dystrophy boys. The conditions noted are these: orally, 100 mg/kg; cited from earlier work.
The subject of assay [3] is wildtype myofibers. In words: Laser injury FM 4-64 uptake, E coli versus HEK cell produced rANXA6. The format is cell-based, mouse. The conditions noted are these: 13 μg/ml and 130 μg/ml; for FM 4-64 dye uptake after laser injury: vs BSA control. Here is the method: Myofiber isolation, laser injury, and dye measurement. For recombinant myofibers studies, myofibers were isolated from wildtype mice. Myofibers were incubated in Ringer's media with 13 μg/ml or 130 μg/ml human recombinant annexin, E coli or HEK cell produced. Bovine serum albumin (BSA) was used as a negative control. FM 4-64 ([…]) was added to the myofibers just prior to imaging. Fibers were subjected to laser-induced damage at room temperature using the Nikon A1R-MP multiphoton microscope. Imaging was performed using a 25×1.1 NA objective directed by the NIS-Elements AR imaging software. FM 4-64 was excited using a 920 nm wavelength laser and emission wavelengths of 575 nm and 629 nm were collected, respectively. To induce laser damage on isolated myofibers, a diffraction limited spot (diameter approximately 410 nm) was created on the lateral membrane of the myofiber using a 920 nm wavelength laser at 10-15% laser power for 1 second. FM 4-64 area was measured using FIJI from a single slice near the middle of the z-stack. Myofiber quality control was based on a number of characteristics including using adherent myofibers with intact sarcomere structure. Myofibers appeared devoid of tears or ruptures induced during the isolation protocol. The region of the myofiber selected for damage was linear and not located on a nucleus or neuromuscular junction.
Statistical analyses were performed with Prism (Graphpad, La Jolla, Calif.). Comparisons relied on ANOVA (1way ANOVA for 1 variable). P-values of less than or equal to 0.05 were considered significant. Error bars represent +/−standard error of the mean (SEM).

A further assay deals with myofibers. In words: Annexin repair cap formation after laser injury at multiple Ca2+ concentrations. The format is cell-based, mouse. Here is the method:
(§1) Electroporation, myofiber isolation, laser injury, cap and vesicle measurement. Flexor digitorum brevis (FDB) fibers were transfected with endo-free plasmid DNA by in vivo electroporation. Methods were described previously in (Demonbreun and McNally, 2015; Demonbreun et al., 2016b; DiFranco et al., 2009). Z-stack projections were acquired from consecutive acquisitions after the final time-lapse frame, approximately 4 minutes post damage, with a […] step size between slices. Z-stack renderings were constructed in FIJI. Measurement of the cap area and feret diameter were conducted from a single slice near the middle of the z-stack using FIJI imaging tools. Fibers expressing similar levels of tagged or GCaMP5G protein were compared. GCaMP5G Ca^2+ fluorescence was measured from the acquired timelapse images, using a standard rectangular ROI, placed inside the myofiber below the site of damage using FIJI. Fluorescence was expressed as F/F0. External vesicle number and GCaMP5G area were measured from endpoint z-stacks and max projection images using FIJI. Vesicles were considered external if they were found outside the sarcolemma assessed in brightfield and fluorescent channels. All measurements were acquired from myofibers isolated from at least n≥3 mice, n≥3 myofibers per mouse.
Calcium kinetics. FDB muscle was electroporated and isolated as described above. Myofibers were damaged in Ringers solution with Ca^2+ concentrations of 2 mM, 1 mM, 0.5 mM, 0.25 mM, 0.175 mM, 0.1 mM, 0.050 mM, and 0 mM. EDTA was added as a Ca^2+ chelating agent in only in the 0 mM Ca^2+ Ringers. Myofibers were isolated directly into 2 mM, 1 mM and 0.5 mM Ringers for those experiments respectively. For experiments using less than 0.5 mM Ca^2+ myofibers were isolated in 0.5 mM Ca^2+ Ringers and then diluted with 0 mM EDTA-free Ca^2+ Ringers. For 0 mM experiments, myofibers were isolated in 0.5 mM Ca^2+ Ringers and then replaced with 0 mM Ca^2++EDTA Ringers just prior to imaging. Co-electroporation of wildtype annexin+wildtype annexin constructs was performed in one mouse foot, while the contralateral foot was co-electroporated with wildtype annexin+mutant annexin. All measurements were acquired from myofibers isolated from at least n≥2 mice, n≥3 myofibers per mouse at each Ca^2+ concentration. Area-Ca^2+ curves were fitted with a Hill Curve at Ca^2+ concentrations ranging from 0-2 mM. Kinetic parameters were calculated using Prism Graphpad.
as §1, with “(Demonbreun A R, Quattrocelli M, Barefield D Y, Allen M V, Swanson K E,” for “(Demonbreun”, “McNally E M. An actin-dependent annexin complex mediates plasma membrane repair in muscle. The Journal of cell biology. 2016; 213(6):705-18; Demonbreun A R, and McNally E M. DNA Electroporation, Isolation and Imaging of Myofibers. Journal of visualized experiments: JoVE.” for “McNally,”, “106(106):e53551;” for “Demonbreun et al., 2016b;”, “M, Quinonez M, Capote J, and Vergara J. DNA transfection of mammalian skeletal muscles using in vivo electroporation. Journal of visualized experiments: JoVE. 2009; 32(32)).” for “et al., 2009).”, “Vesicles were considered external if they were found outside the sarcolemma assessed in brightfield and fluorescent channels. All measurements were acquired from myofibers isolated from at least n≥3 mice, n≥3 myofibers per mouse.” left out

Assay [4] relates to wildtype myofibers. In words: Laser-induced membrane injury, FM 4-64 dye uptake. The format is cell-based, mouse. Particulars: mutant A6E233A-GFP vs wildtype annexin A6-GFP expressing myofibers.

As for `C[C@]12C=CC(=O)C=C1CC[C@@H]1[C@@H]2C(=O)C[C@@]2(C)[C@H]1CC[C@]2(O)C(=O)CO` [prednisone], the “annexin A6GFP repair cap size” value in the assay with Anxa6^em1(GFP) mice is given as “reduced”.

Turning to “AC2-26: N-terminal annexin A1 peptide (AMVSEFLKQAWFIENEEQEYVQTVK; UniProt P04083 2-26, looked up, fragment) [reference compound]”, the cardioprotection entry in assay [1] is “cardioprotective response”. With `CC/C=C\C/C=C\C/C=C\C/C=C\C/C=C\C/C=C\CCC(=O)NCCNC(=O)c1ccccc1O` [Edasalonexent], the muscle disease progression entry in assay [2] is reported as “delayed muscle disease progression”.

B1: E coli produced rANXA6: human recombinant annexin A6 produced in E coli, from R&D Systems or CRO Evotec SE (protein, UniProt P08133 2-673, looked up)
Annexin A6: AKPAQGAKYRGSIHDFPGFDPNQDAEALYTAMKGFGSDKEAILDIITSRSNRQRQEVCQSYKSLYGKDLIADLKYELTGKFERLIVGLMRPPAYCDAKEIKDAISGIGTDEKCLIEILASRTNEQMHQLVAAYKDAYERDLEADIIGDTSGHFQKMLVVLLQGTREEDDVVSEDLVQQDVQDLYEAGELKWGTDEAQFIYILGNRSKQHLRLVFDEYLKTTGKPIEASIRGELSGDFEKLMLAVVKCIRSTPEYFAERLFKAMKGLGTRDNTLIRIMVSRSELDMLDIREIFRTKYEKSLYSMIKNDTSGEYKKTLLKLSGGDDDAAGQFFPEAAQVAYQMWELSAVARVELKGTVRPANDFNPDADAKALRKAMKGLGTDEDTIIDIITHRSNVQRQQIRQTFKSHFGRDLMTDLKSEISGDLARLILGLMMPPAHYDAKQLKKAMEGAGTDEKALIEILATRTNAEIRAINEAYKEDYHKSLEDALSSDTSGHFRRILISLATGHREEGGENLDQAREDAQVAAEILEIADTPSGDKTSLETRFMTILCTRSYPHLRRVFQEFIKMTNYDVEHTIKKEMSGDVRDAFVAIVQSVKNKPLFFADKLYKSMKGAGTDEKTLTRIMVSRSEIDLLNIRREFIEKYDKSLHQAIEGDTSGDFLKALLALCGGED
modifications: E. coli produced
notes: human recombinant annexin A6 produced in E coli, from R&D Systems or CRO Evotec SE
Turning to B1, the “effect on membrane repair, E coli produced compared to mammalian cell produced protein” value with wildtype myofibers [3] is given as “not significantly different”; in the assay on wildtype myofibers [3] (listed as annexin A6 protein produced in prokaryotic cells), “performed as well as”. The “FM 4-64 dye uptake after laser injury” value with wildtype myofibers [3] is listed as “significantly less”.

B2: mammalian HEK cell produced rANXA6: human recombinant annexin A6 produced in mammalian HEK cells (protein, UniProt P08133 2-673, looked up)
Annexin A6: B1 Annexin A6
With B2, the “FM 4-64 dye uptake after laser injury” value in the assay with wildtype myofibers [3] is reported as “significantly less”.

B3: annexin A6E233A: Ca2+-binding mutant of annexin A6 (E233A), plasmid expressed, dominant negative (protein, UniProt P14824 2-673, looked up, variant E233A)
Annexin A6: AKIAQGAMYRGSVHDFPEFDANQDAEALYTAMKGFGSDKESILELITSRSNKQRQEICQNYKSLYGKDLIEDLKYELTGKFERLIVNLMRPLAYCDAKEIKDAISGVGTDEKCLIEILASRTNEQMHQLVAAYKDAYERDLESDIIGDTSGHFQKMLVVLLQGTRENDDVVSEDLVQQDVQDLYEAGELKWGTDEAQFIYILGNRSKQHLRLVFDEYLKTTGKPIEASIRGALSGDFEKLMLAVVKCIRSTPEYFAERLFKAMKGLGTRDNTLIRIMVSRSELDMLDIREIFRTKYEKSLYSMIKNDTSGEYKKALLKLCGGDDDAAGQFFPEAAQVAYQMWELSAVSRVELKGTVCAANDFNPDADAKALRKAMKGIGTDEATIIDIVTHRSNAQRQQIRQTFKSHFGRDLMADLKSEISGDLARLILGLMMPPAHYDAKQLKKAMEGAGTDEKTLIEILATRTNAEIRAINEAYKEDYHKSLEDALSSDTSGHFRRILISLATGNREEGGENRDQAQEDAQVAAEILEIADTPSGDKTSLETRFMTVLCTRSYPHLRRVFQEFIKKTNYDIEHVIKKEMSGDVKDAFVAIVQSVKNKPLFFADKLYKSMKGAGTDEKTLTRVMVSRSEIDLLNIRREFIEKYDKSLHQAIEGDTSGDFMKALLALCGGED
modifications: GFP tag
Turning to B3, the “annexin A1, A2 and A6 cap size with co-expressed mutant annexin A6” value in the assay with myofibers (compared to A1+A6, A2+A6, A6+A6 controls (heterotypic)) is recorded as “significant reduction”. Moreover, the “repair cap diameter (DMAX) / cap size of the co-expressed wildtype annexin of the same type” value in the assay with myofibers (wildtype+mutant vs wildtype+wildtype co-electroporation (homotypic)) is given as “significantly reduced”. Also, the “FM 4-64 fluorescence area after laser injury” value with wildtype myofibers [4] is “increased”.

B4: recombinant annexin A1: recombinant annexin A1 protein (literature) (protein, UniProt P04083 2-346, looked up)
Annexin A1: AMVSEFLKQAWFIENEEQEYVQTVKSSKGGPGSAVSPYPTFNPSSDVAALHKAIMVKGVDEATIIDILTKRNNAQRQQIKAAYLQETGKPLDETLKKALTGHLEEVVLALLKTPAQFDADELRAAMKGLGTDEDTLIEILASRTNKEIRDINRVYREELKRDLAKDITSDTSGDFRNALLSLAKGDRSEDFGVNEDLADSDARALYEAGERRKGTDVNVFNTILTTRSYPQLRRVFQKYTKYSKHDMNKVLDLELKGDIEKCLTAIVKCATSKPAFFAEKLHQAMKGVGTRHKALIRIMVSRSEIDMNDIKAFYQKMYGISLCQAILDETKGDYEKILVALCGGN
Consider B4, for which the cardioprotection entry in assay [1] is listed as “cardioprotective response”.
